{
  "source": "paper PMC12992115",
  "about": "(Nature Cell Biology, 2026)",
  "key": {"[1]": {"biological_target": "BicD2–rigor kinesin conjugate (BicD2(25–400)–SpyCatcher003 covalently linked to KIF5B(1–490) rigor mutant–SpyTag003) (mouse | not stated) (UniProt Q921C5)", "sequence (Q921C5 25-400, change not shown)": "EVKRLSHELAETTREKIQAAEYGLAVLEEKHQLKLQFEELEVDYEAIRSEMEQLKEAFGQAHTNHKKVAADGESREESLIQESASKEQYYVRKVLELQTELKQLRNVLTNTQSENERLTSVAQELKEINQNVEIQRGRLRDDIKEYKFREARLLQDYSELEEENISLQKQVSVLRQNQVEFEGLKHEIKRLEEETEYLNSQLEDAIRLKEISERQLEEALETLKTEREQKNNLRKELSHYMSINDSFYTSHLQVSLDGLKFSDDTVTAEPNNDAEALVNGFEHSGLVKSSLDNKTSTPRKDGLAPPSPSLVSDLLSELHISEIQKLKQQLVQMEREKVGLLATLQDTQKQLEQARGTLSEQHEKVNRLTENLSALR", "test": "three-colour single-molecule TIRF co-localization"}, "[2]": {"biological_target": "Biotinylated BicD2 (amino acids 25–400) (mouse) (UniProt Q921C5)", "sequence (Q921C5 25-400)": "as the sequence (Q921C5 25-400, change not shown) above", "test": "three-colour single-molecule TIRF co-localization"}, "[3]": {"biological_target": "BicD2(25–400) with SpyCatcher003 at the C terminus (mouse) (UniProt Q921C5)", "test": "mass photometry"}, "[4]": {"biological_target": "truncated kinesin-1 rigor mutant (KIF5B(1–490)) with SpyTag003 at the C terminus (UniProt P33176)", "test": "mass photometry"}, "[5]": {"biological_target": "BicD2–superfolder green fluorescent protein (sfGFP), amino acids 25–400 (UniProt Q921C5)", "sequence (Q921C5 25-400)": "as the sequence (Q921C5 25-400, change not shown) above", "test": "pull-down + other: mass photometry"}, "mass photometry": {"biological_target": "the molecule itself", "test": "mass photometry"}},
  "note": "“And” between values parts separate entries of the source, which are not always exact repeats. Equal values may be shown once.",
  "data": [
    {"molecule": "recombinant full-length human cytoplasmic dynein-1 complex co-expressed with its five accessory chains (from UniProt Q14204;Q13409;O43237;P63172;P63167;Q9NP97)", "values": [
      {"measurement": "frequency of three-colour dynein co-localization", "setting": "[1]", "result": 0.028},
      {"measurement": "frequency of three-colour dynein co-localization", "setting": "[2]", "result": 0.018}
    ]},
    {"molecule": "BicD2(25–400) with SpyCatcher003 at the C terminus (from UniProt Q921C5 25-400) (domain or fragment)", "values": [
      {"measurement": "stoichiometry N", "setting": "[3]", "result": 2},
      {"measurement": "stoichiometry N (BicD2:rigor kinesin (2:2))", "setting": "[4]", "result": 1}
    ]},
    {"molecule": "cytoplasmic dynein from rat-brain lysate (complex)", "values": [
      {"measurement": "stoichiometry N (dynein per DDB complex)", "setting": "[5]", "result": "1 and 2"}
    ]},
    {"molecule": "truncated kinesin-1 rigor mutant (KIF5B(1–490)) with SpyTag003 at the C terminus (domain or fragment, cyanine 5 label (Fig. 5d) or CF488 label (Fig. 5h)) MADLAESNIKVMCRFRPLNESEVNRGDKYIAKFQGEDTVVIACKPYAFDRVFQSSTSQEQVYNDAAKKIVKDVLEGYNGTIFAYGQTSSGKNHTMEGKLHDPEGMGIIPRIVQDIFNYIYSMDENLEFHIKVSYFEIYLDKIRDLLDVSKTNLSVHEDKNRVPYVKGATERFVSSPDEVMDTIDEGKSNRHVAVTNMNEHSSRSHSIFLINVKQENTQTEQKLSGKLYLVDLAGSEKVSKTGAEGAVLDEAKNINKSLSALGNVISALAEGSTYVPYRDSKMTRILQDSLGGNARTTIVICCSPSSYNESETKSTLLFGQRAKTIKNTVSVNVELTAEQWKKKYEKEKEKNKILRNTIQWLENELNRWRNGETVPIDEQFDKEKANLEAFTVDKDITLTNDKPATAIGVIGNFTDAERRKAEEEIAKLYKQLDDKDEEINQQSQLVEKLKTQMLDQEELLASTRRDQDNMQAELNRLQAENDASKEEVKE", "values": [
      {"measurement": "stoichiometry N", "setting": "mass photometry", "result": 2}
    ]}
  ]
}
